# Laboratory results published in the RNAGym collection of RNA variant scans (doi:10.1073/pnas.2313332121).
# Fewer inactive variants are shown than the library holds.
# B1: TPR 5TU (parent)
# chain: GGAUCUUCUCGAUCUAACAAAAAAGACAAAUCUGCCACAAAGCUUGAGAGCAUCUUCGGAUGCAGAGGCGGCAGCCUUCGGUGGCGCGAUAGCGCCAACGUUCUCAACUAUGACACGCAAAACGCGUGCUCCGUUGAAUGGAGUUUAUCAUG
# Variants of: B1
# Assay: polymerase ribozyme fitness, log enrichment relative to wild type (log ratio); higher = more active; in vitro selection for triplet polymerase activity
# Method in brief: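 One round of in vitro selection, in triplicate, was applied to PCR-built, transcribed mutant libraries of each subunit of a heterodimeric triplet polymerase ribozyme. The steps were annealing with a biotinylated primer, partner subunit and triplets, incubation frozen at −7 °C, gel excision of extended constructs, streptavidin-bead capture and RT-PCR. Fitness is the logarithm, base 2, of genotype enrichment over wild-type enrichment from inverse-variance-weighted replicate averages of Illumina-sequenced inputs and outputs, keeping genotypes with ≥10 input reads and ≥1 read per output.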
row,Variant,polymerase ribozyme fitness (log ratio)
1,A49G A122U G124U,-0.811
2,A49C A52G C72A,≤ -4.2
3,A49G A113U,-2.42
4,A49G A97G,-1.11
5,A49G A91G,-4.05
6,A49C G81U G84U C125G G141C A150U,≤ -4.2
7,G48C U56C A73G C118A,-2.46
8,G48C U55A,-0.498
9,A49C C69A C79U G83U G94U U104A,≤ -4.2
10,G48A C85U A97U U130C A150U,≤ -4.2
11,A49G C125G,-0.947
12,A49C G50C G67C C72G G84A C108A A142G A147U,≤ -4.2
13,G48U A142U,-2.92
14,G48A C75U C87A C93G,≤ -4.2
15,G48A G136U,-2.5
16,G48U C85U G140U,≤ -4.2
17,G48C C96U A110G,≤ -4.2
18,G48C G58C C63A G74C G81A A89U A137C,≤ -4.2
19,G48A G50A U56G U148C,≤ -4.2
20,G48A G80C G94A C96U C99G,-3.97
21,G48C C54A A73U C99A A150C,≤ -4.2

row,Variant,polymerase ribozyme fitness (log ratio)
1,G48C G86U C95A C96G G117C G136A,≤ -4.2
2,A49G A142C,-1.59
3,G48U G50C C85G A98U C99U C149U,≤ -4.2
4,G48A U101G,-2.26
5,G48C G94A,-0.224
6,G48C A113C U148C,≤ -4.2
7,G48C C87G G88C A91G A119U U134G,≤ -4.2
8,A47U G141A,-1.46
9,G48C C125G,-0.571
10,A49G C57U C75A U146G,≤ -4.2
11,G48A U61A G71A C85G A107U G124U G141U,≤ -4.2
12,A49G G74C U101G G112C A122U U127A A138C,≤ -4.2
13,G48A C87U A91U C93U,≤ -4.2
14,A49C C75U C76A U77G G81U C87U C93U G94A C131G U134G,≤ -4.2
15,A49C G68A C96U A98C C108G,≤ -4.2
16,A49G C93A U134A U146G,≤ -4.2
17,A49C A52G G83A U102G U134G,-3.78
18,G48A A107G,-4.08
19,A49G G50A C95U U145C,-2.54
20,A49C C75G G83U G141A U146A,≤ -4.2
21,A49C G67A G92U A138C,≤ -4.2

row,Variant,polymerase ribozyme fitness (log ratio)
1,A49C G88U C96G A115U U148G,≤ -4.2
2,G48A C57A U144G,0.472
3,A49C C99G,≤ -4.2
4,G48C U53A G74C C85U C99U A119G A120G,≤ -4.2
5,A49C G59U U77C G81C U109G G141C,≤ -4.2
6,A49C U53A G86U A115G,≤ -4.2
7,G48C G58A A91G,-3.21
8,A49C A52G C85U U101G U127G U144G,≤ -4.2
9,A49G C76U A89C C96A,-2.23
10,A49G A52G G68U C69G G100C,≤ -4.2
11,A49C C93A,≤ -4.2
12,G48A A106G,-1.77
13,G48C C69A C149U,-2.77
14,G48C G50U G59U U82A G92C,-3.41
15,G48U G84U,-2.01
16,A49C G62U A107U G152A,≤ -4.2
17,G48C G94U C103U G140A,≤ -4.2
18,G48U C96G,-1.13
19,G48U C96A,-0.685
20,A49G C105U A113G A115C A147U,≤ -4.2
21,A47U U61A C75A C76U G88U,≤ -4.2

row,Variant,polymerase ribozyme fitness (log ratio)
1,A49C G68C G81C C93A G126A,≤ -4.2
2,G48C U53G,-3.59
3,A49C U61G G62A G81C,-4.13
4,A49C G58C A66G C93G A107U A120U,≤ -4.2
5,G48C G50A U55A,-3.03
6,A49G,-0.331
7,A49C,-4.19
8,A49G G84A,-0.52
9,A47U U56A G94A C118U A121U,-0.95
10,G48A C76G C87A U90A U146A,≤ -4.2
11,G48C U55A A107U U111G,≤ -4.2
12,G48A G59A G88C A106G U148C,≤ -4.2
13,G48A C54A U55G G58U A97G,-3.22
14,A49G A106G,-1.08
15,A49C G62A G94C A122U C132G A142C,≤ -4.2
16,G48C A110C G141U U148G,≤ -4.2
17,A49C A91U C95A A107U,≤ -4.2
18,A49C U56G G65U A73C C87A,≤ -4.2
19,G48A A60G G84U,-1.73
20,G48A C85A A89U A98U A113G G117A,≤ -4.2
21,G48A G83U A98G G140C,≤ -4.2
